Data taken from US5602009, “Dominant negative chimeras of the steroid/thyroid superfamily of receptors” (The Salk Institute for Biological Studies).

T1: retinoic acid receptor alpha (RARalpha) (UniProt P10276 P10276:1-462)
T1 sequence: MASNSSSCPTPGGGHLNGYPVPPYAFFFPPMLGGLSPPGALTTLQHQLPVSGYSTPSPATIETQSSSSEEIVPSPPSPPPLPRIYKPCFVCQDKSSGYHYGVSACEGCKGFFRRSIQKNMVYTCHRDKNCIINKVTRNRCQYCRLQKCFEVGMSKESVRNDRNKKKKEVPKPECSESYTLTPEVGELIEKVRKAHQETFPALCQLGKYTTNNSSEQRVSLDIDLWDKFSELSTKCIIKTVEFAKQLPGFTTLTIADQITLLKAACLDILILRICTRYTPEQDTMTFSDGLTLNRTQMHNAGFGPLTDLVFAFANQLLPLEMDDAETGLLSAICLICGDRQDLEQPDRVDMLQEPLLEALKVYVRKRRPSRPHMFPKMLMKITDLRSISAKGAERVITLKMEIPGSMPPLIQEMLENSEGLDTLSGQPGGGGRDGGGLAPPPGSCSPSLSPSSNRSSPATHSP

T2: thyroid hormone receptor alpha (rTRalpha) (Rattus norvegicus, UniProt P63059-2 P63059-2:1-410)
T2 sequence: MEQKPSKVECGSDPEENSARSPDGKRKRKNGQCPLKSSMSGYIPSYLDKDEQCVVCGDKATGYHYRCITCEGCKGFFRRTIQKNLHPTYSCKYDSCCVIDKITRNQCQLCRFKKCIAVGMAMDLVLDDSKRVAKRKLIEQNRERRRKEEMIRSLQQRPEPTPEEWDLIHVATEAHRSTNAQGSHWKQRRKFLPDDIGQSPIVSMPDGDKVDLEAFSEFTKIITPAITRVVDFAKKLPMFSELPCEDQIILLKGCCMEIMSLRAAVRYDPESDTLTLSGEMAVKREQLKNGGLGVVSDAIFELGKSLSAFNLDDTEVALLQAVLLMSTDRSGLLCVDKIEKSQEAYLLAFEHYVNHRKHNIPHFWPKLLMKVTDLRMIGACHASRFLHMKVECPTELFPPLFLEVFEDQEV

B1: TREp palindromic thyroid response element (dsDNA)
DNA 1: TCAGGTCATGACCTGA
DNA 2: TCAGGTCATGACCTGA

What was measured:
[1] = test system: glucocorticoid receptor (hGR) (Homo sapiens); test: cell_activity; settings: dexamethasone 1e-7 M, MTV-Luc in CV-1
[2] = target: T1, retinoic acid receptor alpha (RARalpha); test: cell_activity; 100 nM RA, delta-MTV-TREp-CAT in CV-1
[3] = target: T2, thyroid hormone receptor alpha …; test: cell_activity; T3 100 nM stimulation of tk-TREp-CAT in CV-1; 80% decrease of basal activity without hormone; settings: tags: RSV expression vector RS-rTRalpha in CV-1 cells

Molecule	activity [1] [fold]	activity [2] [fold]	activity [3] [fold]
mouse mammary tumor virus (MTV) promoter	3000	–	–
B1	–	25	20
